Laboratory results as given in the supplement of paper PMC10126150.
± gives the standard deviation of the averaged measurements.

tested on: ATP; experiment: switch fluorescence ratio, 500 uM ATP over buffer (Cy3 cluster intensity, sum of 5 cycles each) (fold (ratio)); higher = stronger signal-on switching upon ATP binding; sequences stand for … in TCGTCGGCAGCGTCAGATGTGTATAAGAGACAGTTTTTTTTTTTTTTTTTTTTTTTTT…TC; settings: aptamer strand: ATP DNA aptamer (quencher-CACCTGGGGGAGTATTGCGGAGGAAGG + anchor), 100 nM annealed; ATP concentration: 500 uM
In short: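 Clusters with intensities outside 100-1000 RFU were excluded. The remaining Cy3-labelled switching-strand clusters on a modified Illumina MiSeq flow-cell had been annealed to 100 nM quencher-labelled ATP aptamer and imaged in selection buffer, then after 15 min with 500 uM ATP at 22 °C, for five cycles separated by NaOH stripping and re-annealing. The fluorescence ratio, averaged per switch-domain sequence, is each cluster's summed target-cycle Cy3 intensity over its summed buffer-cycle Cy3 intensity.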
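Further: ATP exposure 15 min at 22 °C before imaging.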

ATATCGACGT and AGTGGGCTTT are within error of each other in switch fluorescence ratio: 1 ± 0.013 for the first, 0.996 ± 0.037 for the second.

GCTAGGGTAG and AGGGGGAAGA are within error of each other in switch fluorescence ratio: 1.03 ± 0.058 for the first, 1 ± 0.019 for the second.

TGGTAGATT and TCCTGATGTT are within error of each other in switch fluorescence ratio: 1.01 ± 0.046 for the first, 0.982 ± 0.046 for the second.

TGAGGATGGA and TGATGAGGAA are within error of each other in switch fluorescence ratio: 0.975 ± 0.044 for the first, 0.97725 ± 0.00082 for the second.

Compared with TCTGTTATCA, CCCGGGTGAT is higher in switch fluorescence ratio: 1 ± 0.029 for the first, 4 ± 0.3 for the second.

CCAGTAGAGC and TATTTGGACT are within error of each other in switch fluorescence ratio: 1.01 ± 0.034 for the first, 1.04 ± 0.046 for the second.

Going from GGGCCAACGA to ATTTTTGAAC, the switch fluorescence ratio falls from 1.042 ± 0.0014 to 0.99 ± 0.019.

Compared with CTCTGGACAG, TCTGTCCTTC is higher in switch fluorescence ratio: 0.9718 ± 0.0089 for the first, 1.06 ± 0.054 for the second.

CAAAGTTTCG and AGGGGGGCAA are within error of each other in switch fluorescence ratio: 1.04 ± 0.0012 for the first, 1.03 ± 0.13 for the second.

GAATGGGACG and TCGATATTTA are within error of each other in switch fluorescence ratio: 1 ± 0.021 for the first, 0.982 ± 0.02 for the second.

ACATCCCGTT and TTTAGGATTT are within error of each other in switch fluorescence ratio: 1.05 ± 0.048 for the first, 0.985 ± 0.027 for the second.

Compared with AACGATTGGG, AGATGTGGTT is higher in switch fluorescence ratio: 0.948 ± 0.027 for the first, 0.9922 ± 0.0041 for the second.

First: ATGAGGGTTG
Second: GGGGTGGGTA
The switch fluorescence ratio of the first is higher: 1.04 ± 0.013 for the first, 0.998 ± 0.028 for the second.

TTCAGAGCTT and GTCGTTTTGG are within error of each other in switch fluorescence ratio: 1 ± 0.035 for the first, 0.99 ± 0.029 for the second.

First: AGGAGTTGAA
Second: AATCGGGGTC
The switch fluorescence ratio of the first is lower: 0.978 ± 0.016 for the first, 1.01 ± 0.015 for the second.

Going from GCCCCTTAGG to GAGTTAATTG, the switch fluorescence ratio falls from 1.1 ± 0.045 to 1.01 ± 0.043.

TGGAAAGGGA and GTAAGGAGGT are within error of each other in switch fluorescence ratio: 1.01 ± 0.044 for the first, 0.976 ± 0.023 for the second.

GGTGTGTGCT and TTTCGTACGG are within error of each other in switch fluorescence ratio: 0.989 ± 0.049 for the first, 1.03 ± 0.087 for the second.

GAGACTGATG and TTATGGTTAT are within error of each other in switch fluorescence ratio: 1.05 ± 0.14 for the first, 1.03 ± 0.015 for the second.

TGCGACTTTG and TGTTTGGGCC are the same in switch fluorescence ratio: 1.03 ± 0.018 for the first, 1.03 ± 0.011 for the second.

GGGGTCGTGT and TTAGCTAGTT are within error of each other in switch fluorescence ratio: 0.992 ± 0.023 for the first, 0.987 ± 0.042 for the second.

Compared with TGGCGCTTGT, TTTCGTTCGC is higher in switch fluorescence ratio: 0.978 ± 0.028 for the first, 1.302 ± 0.013 for the second.

Going from CCTAGGGGGA to GTATTTAAAT, the switch fluorescence ratio falls from 1.05 ± 0.021 to 0.9855 ± 0.0018.

ACATGAATTT and GGTGTCGGGT are within error of each other in switch fluorescence ratio: 1 ± 0.029 for the first, 0.99 ± 0.012 for the second.

First: TTGTATATGT
Second: TAGCAATGGC
The switch fluorescence ratio of the first is lower: 1.0292 ± 2.1e-05 for the first, 2.42 ± 0.14 for the second.

GGTATGGAGG and ATCGGATTAT are within error of each other in switch fluorescence ratio: 0.988 ± 0.038 for the first, 0.969 ± 0.047 for the second.

TGGGTTGGGT and GTTTGTAGGG are within error of each other in switch fluorescence ratio: 0.993 ± 0.022 for the first, 0.988 ± 0.037 for the second.

Going from GTAATTGCGG to TGTGGTGGGC, the switch fluorescence ratio falls from 0.9765 ± 0.0056 to 0.967 ± 0.0012.

First: GGAGCAGCTG
Second: CCATGATGGT
The switch fluorescence ratio of the first is lower: 0.97336 ± 0.00053 for the first, 1.014 ± 0.0084 for the second.

Compared with CCGCGGGTTC, AAGGATTAGA is lower in switch fluorescence ratio: 1.55 ± 0.45 for the first, 0.987 ± 0.02 for the second.

AGTTATCCGG and TTGATGCGTG are within error of each other in switch fluorescence ratio: 0.97 ± 0.044 for the first, 0.9661 ± 0.0063 for the second.

AAGTTGATTC and TCGGGTTGGT are within error of each other in switch fluorescence ratio: 0.979 ± 0.016 for the first, 1.02 ± 0.061 for the second.

AAGGGATTGG and TTTTTTTGGG are within error of each other in switch fluorescence ratio: 0.981 ± 0.031 for the first, 1 ± 0.036 for the second.

Compared with TCAGAAGGTG, TGAGTGTCTG is lower in switch fluorescence ratio: 1.59 ± 0.079 for the first, 0.966 ± 0.019 for the second.

AGAAAAGGAA and CGTGGCGGTT are within error of each other in switch fluorescence ratio: 1 ± 0.017 for the first, 1.09 ± 0.13 for the second.

Going from ATCATGGGTA to ATCATCGCTA, the switch fluorescence ratio rises from 0.9757 ± 0.0069 to 1.094 ± 0.0084.

Compared with TTTTGGGCCT, TTGCTCTTTG is lower in switch fluorescence ratio: 1.042 ± 0.0088 for the first, 1.0058 ± 0.00073 for the second.

Compared with GGGAAAATGG, AGTTGTATGT is lower in switch fluorescence ratio: 1.01 ± 0.016 for the first, 0.951 ± 0.037 for the second.

First: CACACGTTAT
Second: TATTTTTT
The switch fluorescence ratio of the first is higher: 1.19 ± 0.019 for the first, 1.02 ± 0.027 for the second.

Going from TCTAGTGGTT to TTCGATTCGA, the switch fluorescence ratio falls from 1 ± 0.019 to 0.961 ± 0.011.

Going from GGGGTAAGAG to AATCAGTCTG, the switch fluorescence ratio falls from 1.019 ± 0.0038 to 0.992 ± 0.013.

GCTGGAATAT and AATACTTGGG are within error of each other in switch fluorescence ratio: 1 ± 0.039 for the first, 0.966 ± 0.01 for the second.

TAATAAATCA and AATAACTAGG are the same in switch fluorescence ratio: 1 ± 0.036 for the first, 1 ± 0.025 for the second.

TAGTTAATTT and CCGGATGGAG are within error of each other in switch fluorescence ratio: 1.01 ± 0.034 for the first, 1.02 ± 0.036 for the second.

First: TGTTGCGTTG
Second: CTTTAGGGTG
The switch fluorescence ratio of the first is lower: 0.954 ± 0.039 for the first, 1.06 ± 0.047 for the second.

CAGTTTGATG and TGTCGGTCGG are within error of each other in switch fluorescence ratio: 1.003 ± 0.0083 for the first, 0.984 ± 0.015 for the second.

GGGGCGGTGG and TTGGTTGTTA are within error of each other in switch fluorescence ratio: 1.036 ± 0.0062 for the first, 1.01 ± 0.041 for the second.

TTTTAAGTTT and GGAAGTGTGG are within error of each other in switch fluorescence ratio: 0.978 ± 0.027 for the first, 1 ± 0.05 for the second.

ATTACTGGGG and GATGACTTGT are within error of each other in switch fluorescence ratio: 0.99 ± 0.019 for the first, 0.972 ± 0.011 for the second.

TTATTTTTTT and ATTTGGATAA are within error of each other in switch fluorescence ratio: 1 ± 0.033 for the first, 0.9893 ± 0.0066 for the second.

GGGATTCGGG and GGGTTGGGGG are within error of each other in switch fluorescence ratio: 1.02 ± 0.022 for the first, 1 ± 0.032 for the second.

TCTATGGTCT and ACAATGAGTT are within error of each other in switch fluorescence ratio: 0.99 ± 0.011 for the first, 0.985 ± 0.015 for the second.

GGGTGGATGT and GGGGGCCATA are within error of each other in switch fluorescence ratio: 1.01 ± 0.012 for the first, 1.14 ± 0.18 for the second.

AAGTCGAGTC and TGTCACAGTT are within error of each other in switch fluorescence ratio: 0.996 ± 0.018 for the first, 1.01 ± 0.013 for the second.

Compared with TGGGGGGGCA, GGGAGAAGGG is lower in switch fluorescence ratio: 1 ± 0.012 for the first, 0.95 ± 0.023 for the second.

ATTAGCGTTT and CGGTCTGAGG are within error of each other in switch fluorescence ratio: 0.977 ± 0.066 for the first, 1.017 ± 0.002 for the second.

TTCGTGTTTT and CCGGGGTAAG are within error of each other in switch fluorescence ratio: 1.04 ± 0.059 for the first, 1.03 ± 0.029 for the second.

Going from TTAATTGCGA to ATGGTGTGAG, the switch fluorescence ratio rises from 0.9861 ± 0.0048 to 1.02 ± 0.016.

GGGGATTTGA and GCACGGGCAT are within error of each other in switch fluorescence ratio: 0.995 ± 0.029 for the first, 1.01 ± 0.035 for the second.

GGGGGTCTTA and AAAATAATTC are within error of each other in switch fluorescence ratio: 0.9974 ± 0.0063 for the first, 1 ± 0.059 for the second.

Going from GCCGTAATTA to CCAGGTGTCT, the switch fluorescence ratio rises from 1.09 ± 0.017 to 2.16 ± 0.26.

AAGTATTTCG and TGGCTTTGGA are within error of each other in switch fluorescence ratio: 0.9995 ± 0.0062 for the first, 0.988 ± 0.022 for the second.

GTTTCTCATC and ATAGAAAAAT are within error of each other in switch fluorescence ratio: 1.02 ± 0.011 for the first, 1.003 ± 0.0098 for the second.

AAGGGATTAA and GTTTAGGGTT are within error of each other in switch fluorescence ratio: 1.01 ± 0.016 for the first, 1.02 ± 0.018 for the second.

TGTTGGGGCT and ATCGGGGTCA are within error of each other in switch fluorescence ratio: 0.999 ± 0.04 for the first, 1.01 ± 0.027 for the second.

CCATGCTTGT and CAAGTAGGG are within error of each other in switch fluorescence ratio: 1.03 ± 0.035 for the first, 0.956 ± 0.052 for the second.

CGGTAGTTGT and TGTCTATCGG are within error of each other in switch fluorescence ratio: 0.981 ± 0.014 for the first, 0.974 ± 0.014 for the second.

TTGGTTTGTA and AGTTGGGCGG are within error of each other in switch fluorescence ratio: 1 ± 0.065 for the first, 1.02 ± 0.021 for the second.

Going from ATTGATGTA to CAGGTGATAC, the switch fluorescence ratio rises from 1.0136 ± 0.00015 to 2.42 ± 0.29.

TTTTCATATC and AGTGGGGATA are within error of each other in switch fluorescence ratio: 1.04 ± 0.025 for the first, 0.986 ± 0.039 for the second.

TCAGTATGTT and AAAATGGGCC are within error of each other in switch fluorescence ratio: 0.965 ± 0.019 for the first, 0.963 ± 0.033 for the second.

First: GGCTTTTTTT
Second: AGGTTACTCC
The switch fluorescence ratio of the first is lower: 0.994 ± 0.029 for the first, 1.07 ± 0.032 for the second.

Compared with TGTTGCATAA, TTTATTTGGA is higher in switch fluorescence ratio: 0.968 ± 0.016 for the first, 1.018 ± 0.0012 for the second.

Going from TTGCTACCAC to GGATTTTAGG, the switch fluorescence ratio falls from 1.07 ± 0.036 to 0.997 ± 0.019.

TCCTGTGGGT and GGGGGAGCTG are within error of each other in switch fluorescence ratio: 0.99 ± 0.036 for the first, 0.978 ± 0.019 for the second.

ACAACGGAAG and GGATCACACT are within error of each other in switch fluorescence ratio: 1.03 ± 0.035 for the first, 1.02 ± 0.012 for the second.

Going from CCCTGGCACT to TTAGTGAGCG, the switch fluorescence ratio falls from 1.12 ± 0.005 to 1.03 ± 0.012.

AAAGAAACTC and TTGCTCCTTT are within error of each other in switch fluorescence ratio: 1.47 ± 0.7 for the first, 1.02 ± 0.03 for the second.

Sequence TATTGACGGT has a switch fluorescence ratio of 1.02 ± 0.022.
